Test results from US20250340881A1, “PHARMACEUTICAL COMPOSITION FOR TREATING CANCER COMPRISING FOXM1 MUTANT OR FOXM1 SHRNA” (Industry-University Cooperation Foundation Hanyang …, priority 2022, published 2025).

How the values were obtained:
A549 cells [1] = experiment: ELISA of TGFB1 and VEGFA proteins in A549 culture medium; assay type: cell-based; conditions: medium cultured 48 h
Description: (§1) In addition, after co-culturing of human monocyte THP-1 cells and cell groups over-expressing FoxM1 point mutations for 48 hours under the conditions where the previous experiments were performed, the mRNA expression levels of M2d-inducing factors IL4, IL6, IL10, and VEGFA in A549 cells expressing FoxM1 S25E were analyzed. […] The amounts of TGFB1 and VEGFA proteins in the medium cultured for 48 h with A549 cells (4×10^4 cells/ml) expressing FoxM1 variants were measured by ELISA.

A549 cells [2] = experiment: IL6, IL1A and CD274 mRNA in A549 cells co-cultured with Jurkat cells; assay type: cell-based; conditions: co-culture with Jurkat 48 h
THP-1 cells = experiment: M1 and M2 marker mRNA in THP-1 cells co-cultured with FoxM1-expressing A549 cells; assay type: cell-based, human; conditions: co-culture 48 h
Description: In the animal tissues, it was confirmed that both PD-L1 protein expression and CD274 mRNA expression were increased in cancer cells expressing FoxM1 (FIG. 5D, 5E). […] From the results described above, we investigated whether FoxM1 phosphorylated point mutant (S25E) affects the polarization of macrophages in the tumor microenvironment. After co-culturing human monocyte THP-1 cells and the cell groups over-expressing FoxM1 point mutants, M1 and M2 markers were examined in THP-1 cells.
Next, an expression suppression system for suppressing FoxM1 expression was established to observe whether the FoxM1 phosphorylated point mutant (S25E) directly affects polarization to M2 macrophages. First, to inhibit the expression of mRNA of FoxM1, a pLKO-puro.1-hFoxM1 plasmid was produced using a pLKO-puro.1 vector to construct shRNAs targeting nucleotide sequences at 709-729 positions in the human FoxM1 mRNA sequence. The following sequences can be used as target sequences for human FoxM1 shRNA production, and oligonucleotides with the following sequences can be used as primers for shRNA production. The gene accession number for human FoxM1 mRNA in PubMed is NM_001243088.2, and it contains 3507 bp. The following primers were used for shRNA production: 5′-ccgg-[…]-ctcgag-[…]-tttttg-3′ (forward primer) and 5′-aattcaaaaa-AGCAAG AGATGGAGGAAAAGG-ctcgag-[…]-3′ (reverse primer). Then, after purifying and concentrating each lentivirus for expression of the produced FoxM1 shRNA, it was constructed by infecting a lung cancer cell line, A549 cells expressing FoxM1, with the virus. The mRNA expression of M2 markers, CD163, CD206, and VEGFA, was examined after co-culturing lung cancer cells (4×10^4 cells/ml) with suppressed FoxM1 expression and THP-1 cells (1.2×10^5 cells/ml) for 48 h. […] When co-culturing with cancer cells expressing the FoxM1 variant S25E, it was confirmed that the M2 markers CD163, CD206, and VEGFA were all increased by 2 folds or more in THP1 cells compared to the control group (Mock_shCtrl) (FIG. 6D).
After co-culturing the FoxM1 WT protein over-expressed cancer cells (4×10^4 cells/ml) and THP-1 cells (1.2×10^5 cells/ml) for 48 h, the mRNA expression of M1 markers INOS and IL12B was not altered, while the mRNA expression of all the M2 markers IL10, CD163, CD206, TGFB1, and VEGFA was increased in the FoxM1 WT (FIG. 13A). Among them, CD206, TGFB1, and VEGFA had been known as markers for M2d-tumor-associated macrophages (M2d-TAM) (JAYASINGAM, Sharmilla Devi, et al., Frontiers in Oncology (2020) 9: 1512.).

A549 lung cancer cells = experiment: Cell proliferation assay of A549 cells expressing FoxM1 point mutants; assay type: cell-based; conditions: A549 cells expressing the mutant
lung tissues = experiment: EMT marker and PD-L1 protein levels in lysed lung tissue of injected mice; assay type: in vivo
Description: Next, when the lung tissues were lysed and the protein levels of epithelial-mesenchymal transition markers were measured, the protein levels of the mesenchymal marker N-cadherin increased in the FoxM1 phosphorylated point mutant experimental group, while the levels of E-cadherin decreased. In addition, the expression of PD-L1, which was known to be involved in immune evasion and to enhance the tumorigenic potential of cancer cells, was also examined in each experimental group. […] Moreover, the consistent results were confirmed not only at the protein levels but also at the mRNA levels (FIG. 5E).

A549 cells [3] = experiment: M2d-inducing factor mRNA in A549 cells after co-culture with THP-1 cells; assay type: cell-based; conditions: co-culture with THP-1 48 hours
Description: as §1

THP-1 monocytes = experiment: PD-1 (CD279) mRNA in THP-1 monocytes co-cultured with A549 cells; assay type: cell-based, human; conditions: co-culture
Description: To examine the mRNA expression levels of PD-1 and PD-L1, which are involved in solid tumor immune evasion, in THP-1 cells and the cells expressing the FoxM1 phosphorylated point mutant, the expression of PD-1 (CD279) mRNA, an immune evasion factor, was measured by qRT-PCR in THP-1 monocytes co-cultured with A549^S25E cells for 48 h (FIG. 7B). It was observed that the expression of mRNA of PD-L1 (CD274), an immune evasion factor, increased by 2 folds in the A549^S25E cells expressing the phosphorylated point mutant compared to the control group.

Molecule	amount of TGFB1 protein in medium, compared to Mock (A549 cells [1])	amount of VEGFA protein in medium, compared to Mock (A549 cells [1])	expression of IL6, ILIA and CD274 in A549 cells (in words) (A549 cells [2])	mRNA expression of CD274 in A549 cells (A549 cells [2])	mRNA expression of IL6 in A549 cells (A549 cells [2])	mRNA expression of ILIA in A549 cells (A549 cells [2])	M2 markers CD163, CD206 and VEGFA in THP1 cells compared to Mock_shCtrl (THP-1 cells)	mRNA expression of M1 markers INOS and IL12B in THP-1 cells (THP-1 cells)	mRNA expression of M2 markers IL10, CD163, Cd206, TGFB1 and VEGFA in THP-1 cells (THP-1 cells)	cell proliferation (A549 lung cancer cells)	expression of PD-L1 in lung tissue (lung tissues)	protein level of E-cadherin in lung tissue (lung tissues)	protein level of N-cadherin in lung tissue (lung tissues)	mRNA expression level of IL4 in A549 cells (A549 cells [3])	mRNA expression level of IL6 in A549 cells (A549 cells [3])	mRNA expression level of IL10 in A549 cells (A549 cells [3])	mRNA expression level of VEGFA in A549 cells (A549 cells [3])	mRNA expression level, fifth value printed (factor not named) (A549 cells [3])	expression of PD-1 mRNA (CD279) in THP-1 monocytes (THP-1 monocytes)
S25E: FoxM1 phosphorylated point mutant of the S25 residue, expressed by lentivirus in A549 cells (protein, listed as Homo sapiens) MKTSPRRPLILKRRRLPLPVQNAPEETSEEEPKRSPAQQESNQAEASKEVAESNSCKFPAGIKIINHPTMPNTQVVAIPNNANIHSIITALTAKGKESGSSGPNKFILISCGGAPTQPPGLRPQTQTSYDAKRTEVTLETLGPKPAARDVNLPRPPGALCEQKRETCDGEAAGCTINNSLSNIQWLRKMSSDGLGSRSIKQEMEEKENCHLEQRQVKVEEPSRPSASWQNSVSERPPYSYMAMIQFAINSTERKRMTLKDIYTWIEDHFPYFKHIAKPGWKNSIRHNLSLHDMFVRETSANGKVSFWTIHPSANRYLTLDQVFKQQQKRPNPELRRNMTIKTELPLGARRKMKPLLPRVSSYLVPIQFPVNQSLVLQPSVKVPLPLAASLMSSELARHSKRVRIAPKVLLAEEGIAPLSSAGPGKEEKLLFGEGFSPLLPVQTIKEEEIQPGEEMPHLARPIKVESPPLEEWPSPAPSFKEESSHSWEDSSQSPTPRPKKSYSGLRSPTRCVSEMLVIQHRERRERSRSRRKQHLLPPCVDEPELLFSEGPSTSRWAAELPFPADSSDPASQLSYSQEVGGPFKTPIKETLPISSTPSKSVLPRTPESWRLTPPAKVGGLDFSPVQTSQGASDPLPDPLGLMDLSTTPLQSAPPLESPQRLLSSEPLDLISVPFGNSSPSDIDVPKPGSPEPQVSGLAANRSLTEGLVLDTMNDSLSKILLDISFPGLDEDPLGPDNINWSQFIPELQ	5 folds	4 folds	significantly low expression	5 folds	3.5 folds	4.5 folds	≥ 2 folds	did not change	≥ 2 folds	did not significantly increase	elevated	decreased	increased	1.8 folds	1.8 folds	2.2 folds	2.5 folds	2.5 folds	–
S25A: FoxM1 protein with Ser25 substituted with alanine, non-phosphorylated point mutant, expressed by lentivirus in A549 cells (protein, left off: a dimerising Fc or GST, FoxM1 protein with Ser25 substituted with alanine, non-phosphorylated point mutant, expressed by lentivirus in A549 cells) MKTSPRRPLILKRRRLPLPVQNAPAETSEEEPKRSPAQQESNQAEASKEVAESNSCKFPAGIKIINHPTMPNTQVVAIPNNANIHSIITALTAKGKESGSSGPNKFILISCGGAPTQPPGLRPQTQTSYDAKRTEVTLETLGPKPAARDVNLPRPPGALCEQKRETCDGEAAGCTINNSLSNIQWLRKMSSDGLGSRSIKQEMEEKENCHLEQRQVKVEEPSRPSASWQNSVSERPPYSYMAMIQFAINSTERKRMTLKDIYTWIEDHFPYFKHIAKPGWKNSIRHNLSLHDMFVRETSANGKVSFWTIHPSANRYLTLDQVFKQQQKRPNPELRRNMTIKTELPLGARRKMKPLLPRVSSYLVPIQFPVNQSLVLQPSVKVPLPLAASLMSSELARHSKRVRIAPKVLLAEEGIAPLSSAGPGKEEKLLFGEGFSPLLPVQTIKEEEIQPGEEMPHLARPIKVESPPLEEWPSPAPSFKEESSHSWEDSSQSPTPRPKKSYSGLRSPTRCVSEMLVIQHRERRERSRSRRKQHLLPPCVDEPELLFSEGPSTSRWAAELPFPADSSDPASQLSYSQEVGGPFKTPIKETLPISSTPSKSVLPRTPESWRLTPPAKVGGLDFSPVQTSQGASDPLPDPLGLMDLSTTPLQSAPPLESPQRLLSSEPLDLISVPFGNSSPSDIDVPKPGSPEPQVSGLAANRSLTEGLVLDTMNDSLSKILLDISFPGLDEDPLGPDNINWSQFIPELQ	–	–	–	–	–	–	–	–	–	–	–	–	–	–	–	–	–	–	highest
